Results as given in PMC2813365.

B1: non-cognate 17bp (dsDNA)
DNA 1: TGTGCATAGTGGTGCGA
DNA 2: TCGCACCACTATGCACA
B2: cognate 8bp (dsDNA)
DNA 1: TGCATGCA
DNA 2: TGCATGCA

Tests used:
[1] = target: T1, PF14_0633 AP2 domain (Plasmodium falciparum, UniProt Q8IKH2 63-123); assay: size exclusion chromatography
[2] = target: T1, PF14_0633 AP2 domain; assay: X-ray crystallography

| Binder | binding result [1] | binding result [2] |
| --- | --- | --- |
| B1 | binds |  |
| B2 |  | binds |
